Measurements reported in patent US20130189759, “MEGANUCLEASES VARIANTS CLEAVING A DNA TARGET SEQUENCE IN THE NANOG GENE AND USES THEREOF” (Cellectis, published 2013).

What was measured:
Experiment in all cases: cell_activity; 293H endogenous locus, 5 ug plasmid
Conditions in all cases: tags: RM2 linker between monomers
[1] = target: T1, SCOH-NANOG2 pCLS4416 (single-chain I-CreI variant)
T1 chain: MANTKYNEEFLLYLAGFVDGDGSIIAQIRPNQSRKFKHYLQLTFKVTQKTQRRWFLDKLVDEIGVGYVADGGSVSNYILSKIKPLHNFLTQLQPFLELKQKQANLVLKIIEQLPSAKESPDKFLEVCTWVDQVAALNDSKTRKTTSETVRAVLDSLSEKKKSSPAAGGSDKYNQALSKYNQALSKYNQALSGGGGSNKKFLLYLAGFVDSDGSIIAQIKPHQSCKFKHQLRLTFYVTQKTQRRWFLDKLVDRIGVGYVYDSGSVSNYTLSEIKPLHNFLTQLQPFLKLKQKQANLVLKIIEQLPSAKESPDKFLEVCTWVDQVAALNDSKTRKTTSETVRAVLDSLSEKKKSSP
Protocol: (§1) Single Chain I-CreI variants targeting respectively NANOG2 and NANOG4 targets were cloned in the pCLS1853 plasmid. The resulting plasmids, respectively pCLS4415, pCLS4416, pCLS4417, pCLS4418, pCLS4421 and pCLS4422 were used for this experiment. The day of […], cells from the human embryonic kidney cell line, 293-H (Invitrogen) were seeded in a 10 cm dish at density of 1×10⁶ cells/dish. The following day, cells were transfected with 10 μg of total DNA corresponding to the combination of an empty plasmid with a meganuclease-expressing plasmid using lipofectamine (Invitrogen). Plasmid ratio (empty/meganuclease plasmid) used were 10 μg/0 μg, 9 μg/1 μg, 5 μg/5 μg 0 μg/10 μg. 48 hours after transfection, cells were collected and diluted (dilution 1/20) in fresh culture medium. After 7 days of culture, cells were collected and genomic DNA extracted. 300 ng of genomic DNA were used to amplify the endogenous locus surrounding the meganuclease cleavage site by PCR amplification.
(§2) PCR amplification was performed to obtain a fragment flanked by specific adaptator sequences (SEQ ID NO 63; 5′-[…]-3′ and SEQ ID NO 64; 5′-[…]-3′) provided by the company offering sequencing service (GATC Biotech AG, Germany) on the 454 sequencing system (454 Life Sciences). An average of 18,000 sequences was obtained from pools of 2 amplicons (500 ng each). After sequencing, different samples were identified based on barcode sequences introduced in the first of the above adaptators.
(§3) Sequences were then analyzed for the presence of insertions or deletions events (InDel) in the cleavage site of each NANOG target.

[2] = target: T2, SCOH-NANOG2 pCLS4415 (single-chain I-CreI variant)
T2 chain: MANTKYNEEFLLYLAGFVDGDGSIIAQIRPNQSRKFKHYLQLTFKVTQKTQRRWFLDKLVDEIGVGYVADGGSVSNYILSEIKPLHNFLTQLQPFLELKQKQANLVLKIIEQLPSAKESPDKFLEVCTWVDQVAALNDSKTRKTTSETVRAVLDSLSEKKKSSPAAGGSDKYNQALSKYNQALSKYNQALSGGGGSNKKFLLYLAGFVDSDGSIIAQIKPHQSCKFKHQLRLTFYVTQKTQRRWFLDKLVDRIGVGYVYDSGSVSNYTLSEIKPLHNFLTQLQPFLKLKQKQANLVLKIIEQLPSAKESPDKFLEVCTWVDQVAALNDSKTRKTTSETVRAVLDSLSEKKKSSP
Protocol: as §1, §2, §3

[3] = target: T3, SCOH-NANOG2 pCLS4418 (single-chain I-CreI variant)
T3 chain: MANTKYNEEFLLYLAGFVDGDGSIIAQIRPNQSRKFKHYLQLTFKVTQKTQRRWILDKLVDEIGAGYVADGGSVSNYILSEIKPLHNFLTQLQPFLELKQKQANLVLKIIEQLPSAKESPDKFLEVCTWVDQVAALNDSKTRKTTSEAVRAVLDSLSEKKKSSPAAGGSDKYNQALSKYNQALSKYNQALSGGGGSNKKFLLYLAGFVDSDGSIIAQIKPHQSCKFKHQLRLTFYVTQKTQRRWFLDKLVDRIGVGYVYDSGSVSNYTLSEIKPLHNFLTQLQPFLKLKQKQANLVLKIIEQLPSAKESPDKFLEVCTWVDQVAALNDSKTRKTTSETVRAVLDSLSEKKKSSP
Protocol: as §1, §2, §3

B1: NANOG2 (NANOG2.1) target (dsDNA)
DNA 1: CCAACATCCTGAACCTCAGCTACA
DNA 2: TGTAGCTGAGGTTCAGGATGTTGG
activity [1]: 0.222 % InDel
activity [2]: 0.276 % InDel
activity [3]: 0.317 % InDel
